Reference: US20230181748A1 (VIB VZW, published 2023)

Target: preformed, sonicated Aβ aggregates (UniProt P05067 672-713)
Test: cell-based or functional assay

Chain of preformed, sonicated Aβ aggregates (P05067 672-713): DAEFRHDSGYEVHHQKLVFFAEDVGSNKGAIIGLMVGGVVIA

aggregation seeding capacity of Aβ in Aβ biosensor cells (IC50): 1420 nM
B1: AbCap_25 (peptide)
peptide: KLWFFAGSGAPIGL
